The results in this text go back to patent US10975142B2, “Endotrophin neutralization and use thereof” (THE BOARD OF REGENTS OF THE UNIVERSITY OF TEXAS SYSTEM, priority 2013, dated 2021).

The subject of one experiment is 4T1. Put plainly: 4T1 xenograft in nude mice, cisplatin with 10B6 or IgG. It counts as in vivo. The following applies: 28-days; cisplatin 1 mg/kg every 5 days, 10B6 100 μg/mouse once a week. The procedure: (§1) FIGS. 22A-22E. Neutralizing endotrophin activities with monoclonal antibodies sensitizes tumors to cisplatin treatment. FIG. 22A. Pieces of tumors from PyMT mice were implanted into wild-type hosts. Tumor-bearing mice were given cisplatin (1 mg/kg, ip., every 5 days) or PBS, combined with either TZD (20 mg/kg) or anti-endotrophin monoclonal antibodies (100 μg/mouse, once a week) for tumor progression. Tumor volumes were determined by caliper measurements. Data represent mean±SD (n=5/group). *p<0.05, **p<0.01, ***p<0.001 vs. Cisplatin by 2-way ANOVA. FIGS. 22B-22D. 4T1 (0.5×10^6/mouse) cells were xenografted in nude mice and monitored tumor growth (FIG. 22B) and metastasis (FIG. 22C). […] Tumor volumes were determined by caliper measurements. […] Metastatic burden was determined by measuring metastatic lesion area in lung tissues with H&E stains. Quantified data represent mean±SD (n=5/group). **p=0.0007 and *p=0.0209 vs. CIS/10B6 by unpaired student t-test. mRNA levels for EMT markers such as vimentin, snail, slug, twist1, twist2 and S100S4 were determined by RT-qPCR (FIG. 22D). […]
(§2) As a last step, therapeutic potential of a previously described endotrophin neutralizing antibody (clone 10B6) on cisplatin sensitivity was determined. […] Tumor regression was monitored for 2-months post implantation. […]

Another experiment relates to ETP+-cancer cells. Put plainly: allograft of FP635/ETP+-cancer cells in Matrigel plug with or without 10B6. The format is in vivo, mouse. The procedure:
FIGS. 8A-8I: 10B6 blocks ETP-mediated stromal expansion in vivo. (FIG. 8A) 10B6 (200 μg/mouse) was i.p. injected twice weekly into PyMT mice from 9 to 13 weeks of age. Tumor growth (mean±SEM; n=4-6 per group) was determined by weekly caliper measurements. *P<0.05, **P<0.01, ***P<0.001 vs. IgG control, 2-way ANOVA. (FIG. 8B) Primary mammary epithelial cancer cells were isolated from 12-week-old FP635/PyMT and FP635/PyMT/ETP mice and implanted into WT recipients with the same volume of Matrigel. For the 10B6 group, 10B6 was added in a Matrigel plug (10 μg/plug) admixed with ETP^+-cancer cells (i.e., ETP^+/10B6). A representative whole-body image was acquired 25 days after implantation using IVIS fluorescence scanner. Artificial color indicates fluorescence signal intensity accounts for tumor volume (AU). Quantitative results are represented as mean±SEM (n=3 per group). *P<0.05, unpaired t test. (FIGS. 8C-8I) 6 weeks after implantation, tumor tissues were excised from Ctrl-, ETP^+-, and ETP^+/10B6-cancer cells allografted mice and stained for H&E (FIG. 8C), Masson's Trichrome C (FIG. 8D), α-SMA (FIG. 8E), FSP-1 (FIG. 8F), CD31 (FIG. 8G), F4/80 (FIG. 8H), and Ki67 (FIG. 8I). Quantified results in FIGS. 8D-8I are mean±SEM (multiple images, n=3 per group). *P<0.05, **P<0.01, unpaired t test. Scale bars: 50 μm. (FIG. 8J) Working model for ETP in mammary tumor progression.
Isolation of mammary epithelial cancer cells and implantation procedures were as previously described. Tumor growth was monitored once weekly beginning 2 weeks after implantation.

The next experiment deals with tumors from PyMT mice. Put plainly: allografts of PyMT tumor pieces, cisplatin with TZD or 10B6. It counts as in vivo. The following applies: cisplatin 1 mg/kg every 5 days combined with TZD 20 mg/kg or 10B6 100 μg/mouse once a week; 2-months post implantation. The procedure:
as §1, §2

In experiment [1] the test system is diet induced obese (DIO) mice. Put plainly: diet induced obese mice, hyperinsulinemic-euglycemic clamp. As to conditions: 10B6 100 μg/mouse vs IgG. The format is in vivo. The procedure: FIGS. 24A-24D: Endotrophin neutralization improves the metabolic phenotype. FIG. 24A. Two cohorts of mice (n=8) were exposed to high fat diet for 45 days after weaning. At the indicated time points (arrowheads), mice were treated with anti-endotrophin monoclonal antibodies (100 μg/mouse) or equivalent amounts of non-immune antibody. Body weights were monitored. FIG. 24B. Glucose infusion rate and FIG. 24C. Suppression of hepatic glucose efflux was measured in a hyperinsulinemic euglycemic clamp. FIG. 24D. Table of parameters measured prior and during the clamp. Significant differences as indicated by unpaired student t-test.
To evaluate the therapeutic potential of endotrophin neutralizing monoclonal antibodies on metabolic perspectives, diet induced obese (DIO) mice were chronically treated with either IgG control or 10B6 (rat anti-mouse endotrophin monoclonal antibody) via intraperitoneal injection at 2 weeks after high-fat diet (HFD) challenge and maintained them on a HFD with antibody treatment for another 4 weeks. […] Strikingly, 10B6 treated DIO mice improved whole-body insulin sensitivity, as determined by the amount of glucose required to maintain euglycemia (FIG. 24B) and by the amount of suppression of hepatic glucose efflux (FIGS. 24C and D).

Turning to `N.N.[Cl][Pt][Cl]` [cisplatin, cis-diammine-dichloro-platinum], the “primary tumor growth of 4T1” value with 4T1 is “barely inhibited”.

B1: 10B6: rat anti-mouse endotrophin monoclonal antibody; light chain variable SEQ ID NO: 2, heavy chain variable SEQ ID NO: 4 (antibody, V domains shown)
VH: QVQLQQSGPELAKPGSSVKISCKASGYTFTSYEMHWIKQRPGQGLEWIGYIYPESGSTGYNEKFKGKATLTVDKSSPTAYMQLSSLTPDNSAVYFCTRGLRVLGYVMDVWGHGTSVTVSS
VL: DVQLTQSPSFLSASVGDRVTINCKASQNINKYLNWYQQKLGEAPKRLIYNTNNLQTGIPSRFSGSASGTDYTLTISSLHPEDFATYFCLQHSSLYTFGAGTKLELK
In the case of B1, the tumor regression entry in the experiment with ETP+-cancer cells (6 weeks after implantation) is “triggered tumor regression”. In the experiment on ETP+-cancer cells (10B6 10 μg/plug), the “ETP+-cancer cell growth (fluorescence imaging)” value is listed as “effectively attenuated”. Also, the “ETP-mediated tumor stromal expansion” value in the experiment with ETP+-cancer cells (H&E, 6 weeks after implantation) is on record as “inhibited”. In addition, in the experiment on ETP+-cancer cells (Masson's Trichrome C, α-SMA, FSP-1, CD31, F4/80), the “ETP-mediated increase in fibrosis and stromal expansion” value is listed as “completely blocked”. In addition, in the experiment with tumors from PyMT mice, the “tumor growth / sensitization of the tumors to cisplatin treatment” value is on record as “efficiently sensitize”. The “whole-body insulin sensitivity (glucose required to maintain euglycemia, suppression of hepatic glucose efflux)” value in experiment [1] was “improved”. Further, the “primary tumor growth of 4T1” value in the experiment on 4T1 is recorded as “barely inhibited”.
